{
  "source": "paper doi:10.1101/2025.08.03.668247",
  "about": "“The structure of Egalitarian in complex with the K10 mRNA localization signal reveals a modular binding surface required for function”",
  "experiment_in_all_cases": "fluorescence anisotropy; FA: 20 mM HEPES-NaOH pH 7.5, 100 mM NaCl, 10% glycerol, 20 C, 10 nM FAM-RNA; competition: 150 nM Egl512-819 + 10 nM FAM-K10 TLS, same buffer",
  "details_in_all_cases": "protein: recombinant; tags: N-terminal GST; label: 5'-6-FAM; hairpin with two bulges",
  "key": {"[1]": {"molecular_target": "T1, K754A (Drosophila melanogaster, UniProt Q9W1K4 512-819, K754A)", "T1 sequence": "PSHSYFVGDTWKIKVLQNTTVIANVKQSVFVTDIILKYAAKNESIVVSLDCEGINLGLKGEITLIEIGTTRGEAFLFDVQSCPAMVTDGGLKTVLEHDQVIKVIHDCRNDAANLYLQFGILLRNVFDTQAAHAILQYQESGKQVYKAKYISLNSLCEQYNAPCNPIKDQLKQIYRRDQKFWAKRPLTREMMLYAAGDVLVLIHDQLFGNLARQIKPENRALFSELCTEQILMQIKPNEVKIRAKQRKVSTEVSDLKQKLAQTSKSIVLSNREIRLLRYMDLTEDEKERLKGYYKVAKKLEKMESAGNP"}, "[2]": {"molecular_target": "T2, K678E (Drosophila melanogaster, UniProt Q9W1K4 512-819, K678E)", "T2 sequence": "T1 sequence with K167E, A243K"}, "[3]": {"molecular_target": "T3, EXO-L (Egl512-770) (Drosophila melanogaster, UniProt Q9W1K4 512-770)", "T3 sequence": "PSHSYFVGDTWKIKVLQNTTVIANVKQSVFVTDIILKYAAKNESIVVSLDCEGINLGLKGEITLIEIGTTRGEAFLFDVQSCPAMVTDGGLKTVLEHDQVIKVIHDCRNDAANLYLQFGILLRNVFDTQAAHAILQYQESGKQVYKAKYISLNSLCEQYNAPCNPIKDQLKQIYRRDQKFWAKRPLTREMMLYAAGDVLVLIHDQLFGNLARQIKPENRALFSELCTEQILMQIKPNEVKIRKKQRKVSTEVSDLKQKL"}, "[4]": {"molecular_target": "T4, R788A (Drosophila melanogaster, UniProt Q9W1K4 512-819, R788A)", "T4 sequence": "T1 sequence with A243K, R277A"}, "[5]": {"molecular_target": "T5, R619E (Drosophila melanogaster, UniProt Q9W1K4 512-819, R619E)", "T5 sequence": "T1 sequence with R108E, A243K"}, "[6]": {"molecular_target": "T6, K659E (Drosophila melanogaster, UniProt Q9W1K4 512-819, K659E)", "T6 sequence": "T1 sequence with K148E, A243K"}},
  "note": "Numbering of substitutions follows the chain as printed.",
  "data": [
    {"binder": "CUUGAUUGUAUUUUUAAAUUAAUUCUUAAAAACUACAAAUUAAG (structured_RNA)", "note": "[K10 TLS (FAM)]", "values": [
      {"measurement": "Kd", "setting": "[1]", "result": "212 ± 8", "unit": "nM"},
      {"measurement": "Kd", "setting": "[2]", "result": "195 ± 9", "unit": "nM"},
      {"measurement": "Kd", "setting": "[3]", "result": "807 ± 104", "unit": "nM"},
      {"measurement": "Kd", "setting": "[4]", "result": "207 ± 43", "unit": "nM"},
      {"measurement": "Kd", "setting": "[5]", "result": "318 ± 15", "unit": "nM"},
      {"measurement": "Kd", "setting": "[6]", "result": "418 ± 40", "unit": "nM"}
    ]}
  ]
}
